Measurements reported in patent US20220135655A1.

Tests used:
Test in all cases: SPR
Settings in all cases: scFv
[1] = biological target: H5VN04 (influenza A virus H5VN04 (H5N1))
[2] = biological target: H5 (influenza A virus H5VN04 (H5N1))
[3] = biological target: H5 (influenza A virus H5VN04 (H5N1)); remark: listed apart in the source
[4] = biological target: H5 (influenza A virus H5VN04 (H5N1)); remark: listed apart in the source

Substance | Kd [1] | Kd [2] | Kd [3] | Kd [4]
CR6261 wt | 0.34 nM |  |  | 
F10 |  | 270 nM | 1.2 nM | 0.1 nM
F10 wt | 0.1 nM |  |  | 
